Data reported in PMC7039881.

Experiments:
[1] = target: T1, Myc-tagged human GPAT3 (GPAT3-Myc), Q53EU6; test: co-immunoprecipitation (anti-FLAG IP, immunoblot quantification); details: chain shown with the change; HEK293 cells; n = 3; parent: est. 1.0; read off a plot
T1 chain: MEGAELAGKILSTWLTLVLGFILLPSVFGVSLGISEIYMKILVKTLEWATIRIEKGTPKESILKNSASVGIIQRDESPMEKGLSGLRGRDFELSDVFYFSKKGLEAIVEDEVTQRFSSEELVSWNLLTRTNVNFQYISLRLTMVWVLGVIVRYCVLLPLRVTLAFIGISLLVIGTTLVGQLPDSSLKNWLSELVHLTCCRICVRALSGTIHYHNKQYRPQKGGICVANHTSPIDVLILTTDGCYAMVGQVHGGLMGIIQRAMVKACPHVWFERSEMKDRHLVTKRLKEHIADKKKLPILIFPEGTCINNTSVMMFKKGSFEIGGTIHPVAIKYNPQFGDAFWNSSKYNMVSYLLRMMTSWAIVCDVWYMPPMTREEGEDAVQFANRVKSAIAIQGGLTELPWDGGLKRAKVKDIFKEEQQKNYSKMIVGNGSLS

[2] = target: N-terminal FLAG-tagged seipin A212P (human) (UniProt Q96G97); test: co-IP; HEK293 cells co-transfected, lysed 48 h later in ODG lysis buffer (50 mM n-octyl-β-D-glucopyranoside, 50 mM Tris pH 6.8, 150 mM NaCl, 1 mM EDTA); anti-FLAG-agarose beads 2 h at 4 °C, eluted with 3xFLAG peptide; immunoblot for FLAG and Myc
[3] = target: N-terminal FLAG-tagged seipin L91P (human) (UniProt Q96G97); test: as above
[4] = target: Seipin-Myc, wild type (human) (UniProt Q96G97); test: atomic force microscopy; proteins co-isolated on anti-Myc beads from co-transfected tsA 201 cells, eluted and imaged in tapping mode in air; particle volumes and angles

B1: N-terminal FLAG-tagged wild-type seipin (WT), Q96G97 T78A (protein)
chain: MVNDPPVPALLWAQEVGQVLAGRARRLLLQFGVLFCTILLLLWVSVFLYGSFYYSYMPTVSHLSPVHFYYRTDCDSSATSLCSFPVANVSLTKGGRDRVLMYGQPYRVTLELELPESPVNQDLGMFLVTISCYTRGGRIISTSSRSVMLHYRSDLLQMLDTLVFSSLLLFGFAEQKQLLEVELYADYRENSYVPTTGAIIEIHSKRIQLYGAYLRIHAHFTGLRYLLYNFPMTCAFIGVASNFTFLSVIVLFSYMQWVWGGIWPRHRFSLQVNIRKRDNSRKEVQRRISAHQPGPEGQEESTPQSDVTEDGESPEDPSGTEGQLSEEEKPDQQPLSGEEELEPEASDGSGSWEDAALLTEANLPAPAPASASAPVLETLGSSEPAGGALRQRPTCSSS
**Q.** B1 was tested. Which ratio to parent [1] did it give?
**A.** Its ratio to parent is 0.84 fold vs WT.

B2: Myc-tagged human GPAT3 (GPAT3-Myc) (enzyme)
chain: T1 chain
**Q.** For B2, which reduction of the co-immunoprecipitation against wild-type seipin [2] is on record?
**A.** The reduction of the co-immunoprecipitation against wild-type seipin was 50%.

**Q.** And the reduction of the co-immunoprecipitation against wild-type seipin [3]?
**A.** Its reduction of the co-immunoprecipitation against wild-type seipin is 50%.

B3: FLAG-GPAT3 (enzyme)
chain: T1 chain
**Q.** B3 was tested. Which percent of seipin particles decorated by two GPAT3 particles [4] did it give?
**A.** The percent of seipin particles decorated by two GPAT3 particles was 10.4%.
